Assay results reported in patent publication US11618906B2, “Hydroxylation techniques” (HYPHA DISCOVERY LTD., priority 2018, dated 2023).

Tests used:
Format in all cases: biochemical
[1] = Metabolism of tofacitinib by P450 aluC09 and mutants; settings: percent of substrate being converted; 0.125 mg/ml, 27° C., 16-20 hours; [CYP] per enzyme as in Table 8
Experimental: (§1) Lyophilised material of mutants of CYP450aluC09, ferredoxinaluF03 and ferredoxin reductaseSCF15A was made as described in examples 3 and 4 and suspended in water (0.5 mL per vial) and biocatalysis was performed at 27° C. in the following conditions: 50 mM potassium phosphate pH 7.4, 5 mM MgCl2, 0.125 mg/ml substrate compound such as diclofenac (Sigma-Aldrich, UK), Aceclofenac (Tokyo Chemical Industry UK Ltd, UK), Indomethacin (Sigma-Aldrich, UK), Flufenamic acid (Sigma-Aldrich, UK), Napropamide (Sigma-Aldrich, UK), celecoxib (LC Laboratories, USA), valsartan (Tokyo Chemical Industry UK Ltd, UK), ruxolitinib (LC Laboratories, USA), 4-pyrrolidylacetophenone (Sigma-Aldrich, UK), tofacitinib (LC Laboratories, USA), bosentan (CarboSynth Ltd, UK), buparvaquone (MedChemtronica, Sweden), BIRB796 (Stratech Scientific Limited, UK), epothilone B (LC Laboratories, USA), ritonavir (Tokyo Chemical Industry UK Ltd, UK) or tivantinib (MedChemtronica, Sweden), P450AluC09 (concentration as in Table 8), 5 mM G6P, 1 mM NADP, 2 UN/ml G6PDH in a final volume of 100 μL. After 16-20 hours at 200 rpm (5 cm orbital shaker, Kuhner AG, Switzerland), reactions were extracted with an equal volume of acetonitrile, centrifuged to remove precipitated proteins and conversion assessed by UPLC-MS analysis.
(§2) However, of particular note when considering P450 concentration are the results for mutants M12, M20 and M34, as well as the deleterious impact on the range of substrate utility in mutants M39 and M40.

[2] = Metabolism of BIRB796 by P450 aluC09 and mutants; settings: percent of substrate being converted; 0.125 mg/ml, 27° C., 16-20 hours; [CYP] per enzyme as in Table 8
Experimental: as §1, §2

[3] = Metabolism of ritonavir by P450 aluC09 and mutants; settings: percent of substrate being converted; 0.125 mg/ml, 27° C., 16-20 hours; [CYP] per enzyme as in Table 8
Experimental: as §1, §2

[4] = Hydroxylation of aceclofenac catalysed by cytochrome P450 aluC09 and mutants; settings: for Aceclofenac (Substrate) (1.80 mins) / Dihydroxy-Aceclofenac (1.42 mins) / Hydroxy-Aceclofenac (1) (1.64 min) / Hydroxy-Aceclofenac (2) (1.60 min): % by UV peak area at 275 nm, 0.125 mg/ml substrate, 27° C., 16-20 hours; for Hydroxylated Ratio 2:1: aceclofenac, ratio of UV peak areas at 275 nm
Experimental: as §1
(§3) UPLC data was obtained as follows:
(§4) Column: Acquity UPLC BEH Shield RP18 1.7 μm 2.1 mm i.d. 50 mm length
(§5) Solvents: H2O, B: Acetonitrile, both with 0.1% Formic acid
(§6) Detector: Waters Acquity UPLC PDA (UV-Vis detection) and Waters Acquity UPLC QDA (MS)
Chromatograms are provided in FIGS. 5a-c; aceclofenac elutes at 1.80 minutes, hydroxy-aceclofenac acid 1 elutes at 1.64 minutes, hydroxy-aceclofenac acid 2 elutes at 1.60 minutes and dihydroxy-aceclofenac elutes at 1.42 minutes.

[5] = Metabolism of 4-pyrrolidylacetophenone by P450 aluC09 and mutants; settings: percent of substrate being converted; 0.125 mg/ml, 27° C., 16-20 hours; [CYP] per enzyme as in Table 8
Experimental: as §1, §2

[6] = O-demethylation of indomethacin catalysed by cytochrome P450 aluC09 and mutants; settings: % by UV peak area at 275 nm; 0.125 mg/ml substrate, 27° C., 16-20 hours
Experimental: as §1, §3, §4, §5, §6

[7] = Metabolism of ruxolitinib by P450 aluC09 and mutants; settings: percent of substrate being converted; 0.125 mg/ml, 27° C., 16-20 hours; [CYP] per enzyme as in Table 8
Experimental: as §1, §2

[8] = Metabolism of valsartan by P450 aluC09 and mutants; settings: percent of substrate being converted; 0.125 mg/ml, 27° C., 16-20 hours; [CYP] per enzyme as in Table 8
Experimental: as §1, §2

[9] = Metabolism of tivantinib by P450 aluC09 and mutants; settings: percent of substrate being converted; 0.125 mg/ml, 27° C., 16-20 hours; [CYP] per enzyme as in Table 8
Experimental: as §1, §2

[10] = Metabolism of epothilone B by P450 aluC09 and mutants; settings: percent of substrate being converted; 0.125 mg/ml, 27° C., 16-20 hours; [CYP] per enzyme as in Table 8
Experimental: as §1, §2

[11] = Hydroxylation of flufenamic acid catalysed by cytochrome P450 aluC09 and mutants; settings: for Flufenamic Acid (Substrate) 1.93 mins / Hydroxy-Flufenamic Acid (1) 1.69 mins / Hydroxy-Flufenamic Acid (2) 1.65 mins: % by UV peak area at 275 nm, 0.125 mg/ml substrate, 27° C., 16-20 hours; for Hydroxylated Ratio 1:2: flufenamic acid, ratio of UV peak areas at 275 nm
Experimental: as §1, §3, §4, §5, §6
Flufenamic acid elutes at 1.93 minutes, hydroxy-flufenamic acid 1 elutes at 1.68 minutes and hydroxy-flufenamic acid 2 elutes at 1.65 minutes.

[12] = Hydroxylation of diclofenac catalysed by cytochrome P450 aluC09 and mutants (UPLC-PDA-MS); settings: for 4′,5-dihydroxy-diclofenac 1.38 mins / 4′-hydroxy-diclofenac (1) 1.62 mins / 5-hydroxy-diclofenac (2) 1.58 mins / Diclofenac (Substrate) 1.81 mins: % by UV peak area at 275 nm, 0.125 mg/ml substrate, 27° C., 16-20 hours; for Hydroxylated Ratio hydroxy 1:hydroxy 2: ratio of UV peak areas at 275nm
Experimental: as §1, §3, §4, §5, §6
Illustrative results for the hydroxylation of diclofenac by CYP450aluC09 and selected T291x mutants are summarised below in Table 3 with representative chromatograms resented in FIG. 3a-c; retention times: diclofenac 1.85-1.88 minutes, 5-hydroxydiclofenac 1.60-1.63 minutes, 4′-hydroxydiclofenac 1.65-1.68 minutes, 4′,5-dihydroxydiclofenac 1.40-1.42 minutes. The chromatographic retention times and mass spectra coincided with those of authentic samples.

[13] = Metabolism of celecoxib by P450 aluC09 and mutants; settings: percent of substrate being converted; 0.125 mg/ml, 27° C., 16-20 hours; [CYP] per enzyme as in Table 8
Experimental: as §1, §2

[14] = Metabolism of bosentan by P450 aluC09 and mutants; settings: percent of substrate being converted; 0.125 mg/ml, 27° C., 16-20 hours; [CYP] per enzyme as in Table 8
Experimental: as §1, §2

[15] = Hydroxylation / de-N-ethylation of napropamide catalysed by cytochrome P450 aluC09 and mutants
Experimental: as §1, §3, §4, §5, §6
Napropamide elutes at 1.76 minutes, unidentified metabolite (−2 Da) elutes at 1.90 minutes, desethyl-napropamide elutes at 1.62 minutes, hydroxy-napropamide 1 elutes at 1.53 minutes and hydroxy-napropamide 2 elutes at 1.52 minutes and the desethyl-hydroxy-napropamide product elutes at 1.41 minutes.

[16] = % by UV peak area at 275 nm, 0.125 mg/ml substrate, 27° C., 16-20 hours

Molecule | % conversions (avg) Tofacitinib [1] [%] | % conversions (avg) BIRB796 [2] [%] | % conversions (avg) Ritonavir [3] [%] | Aceclofenac (Substrate) (1.80 mins) [4] [%] | Dihydroxy-Aceclofenac (1.42 mins) [4] [%] | Hydroxy-Aceclofenac (1) (1.64 min) [4] [%] | Hydroxy-Aceclofenac (2) (1.60 min) [4] [%] | Hydroxylated Ratio 2:1 [4] | % conversions (avg) 4-pyrrolidylacetophenone [5] [%] | Indomethacin (1.74 mins) [6] [%] | O-demethyl-Indomethacin (1.52 mins) [6] [%] | % conversions (avg) Ruxolitinib [7] [%] | % conversions (avg) Valsartan [8] [%] | % conversions (avg) Tivantinib [9] [%] | % conversions (avg) Epothilone B [10] [%] | Flufenamic Acid (Substrate) 1.93 mins [11] [%] | Hydroxy-Flufenamic Acid (1) 1.69 mins [11] [%] | Hydroxy-Flufenamic Acid (2) 1.65 mins [11] [%] | % conversions (avg) Celecoxib [13] [%] | % conversions (avg) Bosentan [14] [%] | other results
aluC09M24: cytochrome P450 aluC09 double mutant T291E, A47I; amino acid sequence SEQ ID NO: 84 (protein, listed as Amycolatopsis lurida) MTDVEETTATLPLARKCPFSPPPEYERLRRESPVSRVGLPSGQTAWILTRLEDIREMLSSPHFSSDRQSPSFPLMVARQIRREDKPFRPSLIAMDPPEHSRARRDVVGEFTVKRMKALQPRIQQIVDEHLDALLAGPKPADLVQALSLPVPSLVICELLGVPYSDHEFFQSCSSRMLSREVTAEERMTAFEQLENYLDELVTKKEANATEDDLLGRQILKQRETGEADHGELVGLAFLLLIAGHETTANMISLGTVTLLENPDQLAKIKADPGKTLAAIEELLRVFTIAEEATSRFATADVEIGGTLIRAGEGVVGLSNAGNHDPDGFENPDTFDIERGARHHVAFGFGVHQCLGQNLARLELQIVFDTLFRRVPGLRIAVPVDELPFKHDSTIYGLHALPVTW | 0 | 18.9 | 30.4 | 63.4 | 5.0 | 14.3 | 17.4 | 1.2 | 7.6 | 94.2 | 5.8 | 37.7 | 21.2 | 6.8 | 52.3 | 89.2 | 7.7 | 3.1 | 3.6 | 100 | Hydroxylated Ratio 1:2 [11]: 2.5; 4′,5-dihydroxy-diclofenac 1.38 mins [12]: 1.8%; 4′-hydroxy-diclofenac (1) 1.62 mins [12]: 34.2%; 5-hydroxy-diclofenac (2) 1.58 mins [12]: 8.0%; Diclofenac (Substrate) 1.81 mins [12]: 57.0%; regioselectivity of hydroxylation (product ratio 4′-hydroxydiclofenac : 5-hydroxydiclofenac) ([12]; diclofenac): over four-fold; Hydroxylated Ratio hydroxy 1:hydroxy 2 ([12]; diclofenac): 4.3
aluC09M30: cytochrome P450 aluC09 double mutant T291E, V315L; amino acid sequence SEQ ID NO: 108 (protein, listed as Amycolatopsis lurida) MTDVEETTATLPLARKCPFSPPPEYERLRRESPVSRVGLPSGQTAWALTRLEDIREMLSSPHFSSDRQSPSFPLMVARQIRREDKPFRPSLIAMDPPEHSRARRDVVGEFTVKRMKALQPRIQQIVDEHLDALLAGPKPADLVQALSLPVPSLVICELLGVPYSDHEFFQSCSSRMLSREVTAEERMTAFEQLENYLDELVTKKEANATEDDLLGRQILKQRETGEADHGELVGLAFLLLIAGHETTANMISLGTVTLLENPDQLAKIKADPGKTLAAIEELLRVFTIAEEATSRFATADVEIGGTLIRAGEGVLGLSNAGNHDPDGFENPDTFDIERGARHHVAFGFGVHQCLGQNLARLELQIVFDTLFRRVPGLRIAVPVDELPFKHDSTIYGLHALPVTW | 0 | 18 | 20.9 | 24.1 | 18.4 | 15.0 | 42.5 | 2.8 | 16.6 | 90.1 | 9.9 | 37.5 | 20 | 2.7 | 32.2 | 93.8 | 3.7 | 2.4 | 3.9 | 80.4 | Hydroxylated Ratio 1:2 [11]: 1.5; 4′,5-dihydroxy-diclofenac 1.38 mins [12]: 3.6%; 4′-hydroxy-diclofenac (1) 1.62 mins [12]: 43.4%; 5-hydroxy-diclofenac (2) 1.58 mins [12]: 13.0%; Diclofenac (Substrate) 1.81 mins [12]: 41.6%; Hydroxylated Ratio hydroxy 1:hydroxy 2 ([12]; diclofenac): 3.3
aluC09M18: cytochrome P450 aluC09 mutant T291Q; amino acid sequence SEQ ID NO: 20 (protein, listed as Amycolatopsis lurida) MTDVEETTATLPLARKCPFSPPPEYERLRRESPVSRVGLPSGQTAWALTRLEDIREMLSSPHFSSDRQSPSFPLMVARQIRREDKPFRPSLIAMDPPEHSRARRDVVGEFTVKRMKALQPRIQQIVDEHLDALLAGPKPADLVQALSLPVPSLVICELLGVPYSDHEFFQSCSSRMLSREVTAEERMTAFEQLENYLDELVTKKEANATEDDLLGRQILKQRETGEADHGELVGLAFLLLIAGHETTANMISLGTVTLLENPDQLAKIKADPGKTLAAIEELLRVFTIAEQATSRFATADVEIGGTLIRAGEGVVGLSNAGNHDPDGFENPDTFDIERGARHHVAFGFGVHQCLGQNLARLELQIVFDTLFRRVPGLRIAVPVDELPFKHDSTIYGLHALPVTW | 2.2 | 24.3 | 53.3 | 10.2 | 49.1 | 5.9 | 34.9 | 5.9 | 14.1 | 83.6 | 16.4 | 38.5 | 27.1 | 59.7 | 24.8 | 86.1 | 9.1 | 4.8 | 3.7 | 100 | Desethyl Napropamide (1.62 min) [15, 16]: 49.5%; Desethyl-hydroxy-Napropamide (1.41 min) [15, 16]: 4.1%; Hydroxy-Napropamide (1) (1.53 min) [15, 16]: 1.4%; Hydroxy-Napropamide (2), (1.52 min) [15, 16]: 2.5%; M-2Da (unidentified) (1.89 min) [15, 16]: 5.7%; Napropamide (substrate) [15, 16]: 38.3%; Hydroxylated Ratio 2:1 ([15]; napropamide, ratio of UV peak areas): 1.8; Hydroxylated Ratio 1:2 [11]: 1.9; 4′,5-dihydroxy-diclofenac 1.38 mins [12]: 1.9%; 4′-hydroxy-diclofenac (1) 1.62 mins [12]: 45.5%; 5-hydroxy-diclofenac (2) 1.58 mins [12]: 12.3%; Diclofenac (Substrate) 1.81 mins [12]: 41.6%; Hydroxylated Ratio hydroxy 1:hydroxy 2 ([12]; diclofenac): 3.7
aluC09M21: cytochrome P450 aluC09 mutant T291Y; amino acid sequence SEQ ID NO: 32 (protein, listed as Amycolatopsis lurida) MTDVEETTATLPLARKCPFSPPPEYERLRRESPVSRVGLPSGQTAWALTRLEDIREMLSSPHFSSDRQSPSFPLMVARQIRREDKPFRPSLIAMDPPEHSRARRDVVGEFTVKRMKALQPRIQQIVDEHLDALLAGPKPADLVQALSLPVPSLVICELLGVPYSDHEFFQSCSSRMLSREVTAEERMTAFEQLENYLDELVTKKEANATEDDLLGRQILKQRETGEADHGELVGLAFLLLIAGHETTANMISLGTVTLLENPDQLAKIKADPGKTLAAIEELLRVFTIAEYATSRFATADVEIGGTLIRAGEGVVGLSNAGNHDPDGFENPDTFDIERGARHHVAFGFGVHQCLGQNLARLELQIVFDTLFRRVPGLRIAVPVDELPFKHDSTIYGLHALPVTW | 2.7 |  | 28.2 |  |  |  |  |  | 15.8 |  |  | 19 | 19 | 29.6 | 33.8 |  |  |  | 1 | 59 | 
